Assay results: US20140329742A1 (GlaxoSmithKline, published 2014)
Read-outs that look alike come from different tables or passages of the source. Blank lines part the entries; values can stand above or below the binder they belong to. Where no end group is shown, it is not given here.

How the values were obtained:
[1] = target: T1, human Neuropeptide Y receptor type 2 (human, UniProt P49146 1-381); assay: cell-based or functional assay
T1 sequence (looked up): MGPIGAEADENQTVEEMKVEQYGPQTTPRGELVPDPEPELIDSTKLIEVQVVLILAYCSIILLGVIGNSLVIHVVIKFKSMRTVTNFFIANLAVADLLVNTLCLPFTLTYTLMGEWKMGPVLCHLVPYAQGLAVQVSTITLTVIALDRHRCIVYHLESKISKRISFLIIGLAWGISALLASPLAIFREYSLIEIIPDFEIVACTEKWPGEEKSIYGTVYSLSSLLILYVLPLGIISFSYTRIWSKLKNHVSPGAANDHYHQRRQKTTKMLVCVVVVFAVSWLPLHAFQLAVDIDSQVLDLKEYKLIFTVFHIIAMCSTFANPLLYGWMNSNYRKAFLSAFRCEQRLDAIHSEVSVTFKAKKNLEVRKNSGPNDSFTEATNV

[2] = target: T1, human Neuropeptide Y receptor type 2; assay: cell-based or functional assay; remark: listed apart in the source

B1: Example 31 (peptide)
peptide: PKPEAPGKDASPEELNRYYASLRKYLNWVTRQRY-NH2
- hNPY Y2 pEC50 (melanophore assay) [1]: 9.8

B2: Example 2 (peptide)
peptide: PKPEAPGKDASPEELNRYYASLRKYLNWLTRQRY-NH2
- hNPY Y2 pEC50 (melanophore assay) [1]: 9.8

B3: Peptide 2 (peptide)
peptide: IKPEAPLSKQLEEEAVRYYASLRHYLNLVTRQRY-NH2
- hNPY Y2 pEC50 (melanophore assay) [2]: 8.6

B4: Peptide 1 (peptide)
peptide: PKPEAPGCDASPEEWNRYYASLRKYLNWVTRQNY-NH2
- hNPY Y2 pEC50 (melanophore assay) [2]: 7.9

B9: Example 25 (peptide)
peptide: PKPEHPGKDASPEEWNRYYASLRKYLNWVTRQRY-NH2
- hNPY Y2 pEC50 (melanophore assay) [1]: 9.6

B10: Peptide 3 (peptide)
peptide: PKPEAPGEDASPKEWNRYYASLRKYLNWVTRQRY-NH2
- hNPY Y2 pEC50 (melanophore assay) [2]: 9.2

Further lines, results first:

- hNPY Y2 pEC50 (melanophore assay) [2]: 8.7
B5: Peptide 21 (peptide)
peptide: PKPEAPLSKQLEEEAVRYYASLRHYLNLVTRQRY-NH2

- hNPY Y2 pEC50 (melanophore assay) [2]: 8.2
B6: Peptide 14 (peptide)
peptide: PKPEAPGCDASPEEWNRYYASLRKYLNWVTRQHY-NH2

- hNPY Y2 pEC50 (melanophore assay) [2]: 8.9
B7: Peptide 15 (peptide)
peptide: PKPVAPGCDASPAELNRQYSDLRNYWNLVTRQRY-NH2

- hNPY Y2 pEC50 (melanophore assay) [2]: 9.3
B8: Peptide 8 (peptide)
peptide: IKPPYPGCDASPEEQNKYYASLRAYWNLVTRQRY-NH2
